# Data taken from patent publication US20240239863A1, “GIP RECEPTOR AGONIST AND USE THEREOF” (HANGZHOU ZHONGMEIHUADONG PHARMACEUTICAL CO., LTD., priority 2022, published 2024).
# Non-standard residues stand in square brackets, D forms with d. Residues, ends and D or L forms follow the SMILES beside them. No end group written: not given here. Aib = CC(C)(N)C(=O)O
# T1: human GIP receptor (glucose-dependent insulinotropic peptide receptor, GIPR) (human, UniProt P48546 22-466)
# T1 sequence (looked up): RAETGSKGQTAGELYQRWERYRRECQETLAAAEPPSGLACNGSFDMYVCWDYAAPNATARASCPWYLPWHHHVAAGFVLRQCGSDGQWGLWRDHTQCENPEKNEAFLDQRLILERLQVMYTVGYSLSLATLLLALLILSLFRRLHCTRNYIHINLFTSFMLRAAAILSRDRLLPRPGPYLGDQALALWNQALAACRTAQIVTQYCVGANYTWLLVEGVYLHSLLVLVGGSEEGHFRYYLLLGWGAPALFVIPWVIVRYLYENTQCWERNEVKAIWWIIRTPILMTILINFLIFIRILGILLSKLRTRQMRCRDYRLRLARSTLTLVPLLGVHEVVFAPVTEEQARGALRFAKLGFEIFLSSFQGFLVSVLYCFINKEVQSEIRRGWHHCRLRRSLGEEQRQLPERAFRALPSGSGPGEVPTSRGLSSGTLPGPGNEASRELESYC
# Molecular target: hGLP-1R (Homo sapiens, UniProt P43220)
# Sequence (P43220 24-463): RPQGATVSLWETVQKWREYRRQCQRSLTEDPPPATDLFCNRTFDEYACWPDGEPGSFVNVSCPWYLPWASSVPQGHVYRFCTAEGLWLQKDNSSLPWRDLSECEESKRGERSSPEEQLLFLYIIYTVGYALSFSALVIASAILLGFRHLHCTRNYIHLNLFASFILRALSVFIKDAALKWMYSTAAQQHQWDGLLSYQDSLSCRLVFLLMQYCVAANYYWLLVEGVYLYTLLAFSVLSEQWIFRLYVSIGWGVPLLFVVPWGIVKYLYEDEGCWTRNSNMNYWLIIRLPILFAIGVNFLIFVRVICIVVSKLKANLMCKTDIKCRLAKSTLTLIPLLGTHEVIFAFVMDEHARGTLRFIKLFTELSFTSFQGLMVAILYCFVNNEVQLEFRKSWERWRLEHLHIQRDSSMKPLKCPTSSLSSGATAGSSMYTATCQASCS
# Experiment: Cell agonistic activity at GLP-1 receptor (Example 7)
# Assay type: cell-based
row,Molecule,EC50 [nM]
1,CC[C@H](C)[C@H](NC(=O)[C@H](CO)NC(=O)[C@H](Cc1ccc(O)cc1)NC(=O)[C@H](CC(=O)O)NC(=O)[C@H](CO)NC(=O)[C@@H](NC(=O)[C@H](Cc1ccccc1)NC(=O)[C@@H](NC(=O)CNC(=O)[C@H](CCC(=O)O)NC(=O)C(C)(C)NC(=O)[C@@H](N)Cc1ccc(O)cc1)[C@@H](C)O)[C@@H](C)CC)C(=O)N[C@@H](C)C(=O)N[C@@H](CC(C)C)C(=O)N[C@@H](CC(=O)O)C(=O)N[C@@H](CCCCN)C(=O)N[C@H](C(=O)N[C@@H](Cc1c[nH]cn1)C(=O)N[C@@H](CCC(N)=O)C(=O)N[C@@H](CCC(=O)O)C(=O)N[C@@H](CC(=O)O)C(=O)N[C@@H](Cc1ccccc1)C(=O)N[C@H](C(=O)N[C@@H](CC(N)=O)C(=O)N[C@@H](Cc1c[nH]c2ccccc12)C(=O)N[C@@H](CC(C)C)C(=O)N[C@@H](CC(C)C)C(=O)N[C@@H](C)C(=O)N[C@@H](CCC(N)=O)C(=O)N[C@@H](CCCNC(=N)N)C(=O)NCC(=O)O)C(C)C)[C@@H](C)CC [Sequence 9] (H-Y[Aib]EGTFISDYSIALDKIHQEDFVNWLLAQRG-OH; N-terminus and C-terminus assumed),> 0.1

# Molecular target: T1, human GIP receptor (glucose-dependent …)
# Experiment: cell-based or functional assay
row,Molecule,"EC50(pM), cell agonistic activity (cAMP, HTRF) [pM]"
1,Y[Aib]EGTFISDYSI[Aib]LDKIHQEDFVKWLLAQKG [Sequence 1 (Seq ID. 1)],2.38
2,Y[Aib]EGTFISDYSIALDELHQKDFVNWLLAQRG [Sequence 6 (Seq ID. 6)],7.93
3,Y[Aib]EGTFISDYSIALDKLHQQDFVNWLLAQRG [Sequence 8 (Seq ID. 8)],11.7
4,Y[Aib]EGTFISDYSIALDKLHQEDFVNWLLAQRG [Sequence 10 (Seq ID. 10)],1.63
5,Y[Aib]EGTFISDYSIALDRLHQQDFVKWLLAQRG [Sequence 17 (Seq ID. 17)],58.2
6,Y[Aib]EGTFISDYSIALDRIHQEDFVKWLLAQRG [Sequence 11 (Seq ID. 11)],3.44
7,Y[Aib]EGTFISDYSIALDRIHQQDFVKWLLAQRG [Sequence 13 (Seq ID. 13)],36.2
8,Y[Aib]EGTFISDYSIALDRLHQQDFVNWLLAQKG [Sequence 18 (Seq ID. 18)],16.9
9,Y[Aib]EGTFISDYSI[Aib]LDEIHQKDFVKWLLAQKG [Sequence 2 (Seq ID. 2)],10.7
10,Y[Aib]EGTFISDYSIALDEIHQKDFVKWLLAQKG [Sequence 4 (Seq ID. 4)],2.87
11,Y[Aib]EGTFISDYSIALDKIHQEDFVKWLLAQKG [Sequence 3 (Seq ID. 3)],3.41
12,Y[Aib]EGTFISDYSIALDRLHQEDFVNWLLAQKG [Sequence 16 (Seq ID. 16)],25.5
13,Y[Aib]EGTFISDYSIALDRIHQQDFVNWLLAQKG [Sequence 14 (Seq ID. 14)],18.4
14,Y[Aib]EGTFISDYSIALDRIHQEDFVNWLLAQKG [Sequence 12 (Seq ID. 12)],0.81
15,Y[Aib]EGTFISDYSIALDKIHQQDFVNWLLAQRG [Sequence 7 (Seq ID. 7)],6.04
16,Y[Aib]EGTFISDYSIALDKIHQEDFVNWLLAQRG [Sequence 9 (Seq ID. 9)],16.4
17,Y[Aib]EGTFISDYSIALDRLHQEDFVKWLLAQRG [Sequence 15 (Seq ID. 15)],27.2
18,Y[Aib]EGTFISDYSIALDEIHQKDFVNWLLAQRG [Sequence 5 (Seq ID. 5)],6.12

# Molecular target: T2, human GLP-1 receptor (human, UniProt P43220 24-463)
# Experiment: cell-based or functional assay
row,Molecule,"EC50(pM), cell agonistic activity [pM]"
1,Y[Aib]EGTFISDYSI[Aib]LDKIHQEDFVKWLLAQKG [Sequence 1 (Seq ID. 1)],> 100
2,Y[Aib]EGTFISDYSIALDELHQKDFVNWLLAQRG [Sequence 6 (Seq ID. 6)],> 100
3,Y[Aib]EGTFISDYSIALDKLHQQDFVNWLLAQRG [Sequence 8 (Seq ID. 8)],> 100
4,Y[Aib]EGTFISDYSIALDKLHQEDFVNWLLAQRG [Sequence 10 (Seq ID. 10)],> 100
5,Y[Aib]EGTFISDYSIALDRLHQQDFVKWLLAQRG [Sequence 17 (Seq ID. 17)],> 100
6,Y[Aib]EGTFISDYSIALDRIHQEDFVKWLLAQRG [Sequence 11 (Seq ID. 11)],> 100
7,Y[Aib]EGTFISDYSIALDRIHQQDFVKWLLAQRG [Sequence 13 (Seq ID. 13)],> 100
8,Y[Aib]EGTFISDYSIALDRLHQQDFVNWLLAQKG [Sequence 18 (Seq ID. 18)],> 100
9,Y[Aib]EGTFISDYSI[Aib]LDEIHQKDFVKWLLAQKG [Sequence 2 (Seq ID. 2)],> 100
10,Y[Aib]EGTFISDYSIALDEIHQKDFVKWLLAQKG [Sequence 4 (Seq ID. 4)],> 100
11,Y[Aib]EGTFISDYSIALDKIHQEDFVKWLLAQKG [Sequence 3 (Seq ID. 3)],> 100
12,Y[Aib]EGTFISDYSIALDRLHQEDFVNWLLAQKG [Sequence 16 (Seq ID. 16)],> 100
13,Y[Aib]EGTFISDYSIALDRIHQQDFVNWLLAQKG [Sequence 14 (Seq ID. 14)],> 100
14,Y[Aib]EGTFISDYSIALDRIHQEDFVNWLLAQKG [Sequence 12 (Seq ID. 12)],> 100
15,Y[Aib]EGTFISDYSIALDKIHQQDFVNWLLAQRG [Sequence 7 (Seq ID. 7)],> 100
16,Y[Aib]EGTFISDYSIALDKIHQEDFVNWLLAQRG [Sequence 9 (Seq ID. 9)],> 100
17,Y[Aib]EGTFISDYSIALDRLHQEDFVKWLLAQRG [Sequence 15 (Seq ID. 15)],> 100
18,Y[Aib]EGTFISDYSIALDEIHQKDFVNWLLAQRG [Sequence 5 (Seq ID. 5)],> 100

# Molecular target: T1, human GIP receptor (glucose-dependent …)
# Experiment: cell-based or functional assay
# Remark: another data set of the same source
row,Molecule,"EC50(pM), cell agonistic activity (cAMP, HTRF) [pM]"
1,"Y[Aib]EGTFISDYSIALDRIHQQDFVNWLLAQK(18‑(((23R)-23-carboxyl-2,11,20-trioxo-10,19-diaza-4,7,13,16-tetraoxatricosyl-23-yl)amino)‑18‑oxooctadecanoic acid acetyl)G",3.5
2,"Y[Aib]EGTFISDYSIALDEIHQKDFVNWLLAQRG (also: long-acting conjugating component, site and structure not given here) [Peptide 5 (long-acting conjugate of GIP analog, Seq ID. 5)]",27
3,"Y[Aib]EGTFISDYSIALDRLHQEDFVKWLLAQRG (also: long-acting conjugating component, site and structure not given here) [Peptide 15 (long-acting conjugate of GIP analog, Seq ID. 15)]",9.14
4,"Y[Aib]EGTFISDYSIALDK(18‑(((23R)-23-carboxyl-2,11,20-trioxo-10,19-diaza-4,7,13,16-tetraoxatricosyl-23-yl)amino)‑18‑oxooctadecanoic acid acetyl)LHQQDFVNWLLAQRG",4.26
5,"Y[Aib]EGTFISDYSIALDK(18‑(((23R)-23-carboxyl-2,11,20-trioxo-10,19-diaza-4,7,13,16-tetraoxatricosyl-23-yl)amino)‑18‑oxooctadecanoic acid acetyl)LHQEDFVNWLLAQRG",6.82
6,"Y[Aib]EGTFISDYSIALDRIHQEDFVKWLLAQRG (also: long-acting conjugating component, site and structure not given here) [Peptide 11 (long-acting conjugate of GIP analog, Seq ID. 11)]",3.5
7,"Y[Aib]EGTFISDYSIALDK(18‑(((23R)-23-carboxyl-2,11,20-trioxo-10,19-diaza-4,7,13,16-tetraoxatricosyl-23-yl)amino)‑18‑oxooctadecanoic acid acetyl)IHQEDFVNWLLAQRG",7.24
8,"Y[Aib]EGTFISDYSIALDK(18‑(((23R)-23-carboxyl-2,11,20-trioxo-10,19-diaza-4,7,13,16-tetraoxatricosyl-23-yl)amino)‑18‑oxooctadecanoic acid acetyl)IHQQDFVNWLLAQRG",6.66
9,"Y[Aib]EGTFISDYSIALDELHQKDFVNWLLAQRG (also: long-acting conjugating component, site and structure not given here) [Peptide 6 (long-acting conjugate of GIP analog, Seq ID. 6)]",32.2
10,"Y[Aib]EGTFISDYSIALDRIHQQDFVKWLLAQRG (also: long-acting conjugating component, site and structure not given here) [Peptide 13 (long-acting conjugate of GIP analog, Seq ID. 13)]",5.61
11,"Y[Aib]EGTFISDYSIALDRIHQEDFVNWLLAQKG (also: long-acting conjugating component, site and structure not given here) [Peptide 12 (long-acting conjugate of GIP analog, Seq ID. 12)]",5.14

# Molecular target: T2, human GLP-1 receptor
# Experiment: cell-based or functional assay
# Remark: another data set of the same source
row,Molecule,"EC50(pM), cell agonistic activity [pM]"
1,"Y[Aib]EGTFISDYSIALDRIHQQDFVNWLLAQK(18‑(((23R)-23-carboxyl-2,11,20-trioxo-10,19-diaza-4,7,13,16-tetraoxatricosyl-23-yl)amino)‑18‑oxooctadecanoic acid acetyl)G",> 100
2,"Y[Aib]EGTFISDYSIALDEIHQKDFVNWLLAQRG (also: long-acting conjugating component, site and structure not given here) [Peptide 5 (long-acting conjugate of GIP analog, Seq ID. 5)]",> 100
3,"Y[Aib]EGTFISDYSIALDRLHQEDFVKWLLAQRG (also: long-acting conjugating component, site and structure not given here) [Peptide 15 (long-acting conjugate of GIP analog, Seq ID. 15)]",> 100
4,"Y[Aib]EGTFISDYSIALDK(18‑(((23R)-23-carboxyl-2,11,20-trioxo-10,19-diaza-4,7,13,16-tetraoxatricosyl-23-yl)amino)‑18‑oxooctadecanoic acid acetyl)LHQQDFVNWLLAQRG",> 100
5,"Y[Aib]EGTFISDYSIALDK(18‑(((23R)-23-carboxyl-2,11,20-trioxo-10,19-diaza-4,7,13,16-tetraoxatricosyl-23-yl)amino)‑18‑oxooctadecanoic acid acetyl)LHQEDFVNWLLAQRG",> 100
6,"Y[Aib]EGTFISDYSIALDRIHQEDFVKWLLAQRG (also: long-acting conjugating component, site and structure not given here) [Peptide 11 (long-acting conjugate of GIP analog, Seq ID. 11)]",> 100
7,"Y[Aib]EGTFISDYSIALDK(18‑(((23R)-23-carboxyl-2,11,20-trioxo-10,19-diaza-4,7,13,16-tetraoxatricosyl-23-yl)amino)‑18‑oxooctadecanoic acid acetyl)IHQEDFVNWLLAQRG",> 100
8,"Y[Aib]EGTFISDYSIALDK(18‑(((23R)-23-carboxyl-2,11,20-trioxo-10,19-diaza-4,7,13,16-tetraoxatricosyl-23-yl)amino)‑18‑oxooctadecanoic acid acetyl)IHQQDFVNWLLAQRG",> 100
9,"Y[Aib]EGTFISDYSIALDELHQKDFVNWLLAQRG (also: long-acting conjugating component, site and structure not given here) [Peptide 6 (long-acting conjugate of GIP analog, Seq ID. 6)]",> 100
10,"Y[Aib]EGTFISDYSIALDRIHQQDFVKWLLAQRG (also: long-acting conjugating component, site and structure not given here) [Peptide 13 (long-acting conjugate of GIP analog, Seq ID. 13)]",> 100
11,"Y[Aib]EGTFISDYSIALDRIHQEDFVNWLLAQKG (also: long-acting conjugating component, site and structure not given here) [Peptide 12 (long-acting conjugate of GIP analog, Seq ID. 12)]",> 100
